Results published in publication PMC12737490, “Beta Toxins Isolated from the Scorpion Centruroides hirsutipalpus (Scorpiones; Buthidae) Affect the Function of Sodium Channels of Mammals” (Toxins, 2025).

Legend:
hNav 1.6 = assay: Patch-clamp macroscopic sodium currents, hNav1.6 in HEK cells; assay type: cell-based, human; settings: 200 nM toxin; for A: fraction of channels bound to the toxin: activation; for A: fraction of channels bound to the toxin / slope of activation after toxin / V0.5 of activation after toxin: sum of two Boltzmann fit; for A: fraction of channels bound to the toxin / I/Imax (residual peak current) / slope of inactivation after toxin / V0.5 of inactivation after toxin / slope of activation after toxin / V0.5 of activation after toxin: mean ± SE of 5 cells (3–5 cells); for I/Imax (residual peak current): both values marked * (p<0.05 paired t-test); for slope of inactivation after toxin / V0.5 of inactivation after toxin: steady-state inactivation; for slope of inactivation after toxin: control 6.6 ± 0.3 (Chirp7 cells), 6.3 ± 0.1 (Chirp9 cells); for V0.5 of inactivation after toxin: control -55.8 ± 0.3 (Chirp7 cells), -65.0 ± 0.1 (Chirp9 cells); for slope of activation after toxin: control 5.6 ± 0.22 (Chirp7 cells), 7.0 ± 0.4 (Chirp9 cells); for slope of activation after toxin / V0.5 of activation after toxin: both toxin values marked * (p<0.05); for V0.5 of activation after toxin: toxin-bound component, control -22.8 ± 0.3 (Chirp7 cells), -22.5 ± 0.3 (Chirp9 cells)
Method: Recordings of macroscopic currents from sodium channels. Human voltage-gated sodium channels (hNav 1.1, hNav 1.2 and hNa 1.6) were stably expressed in HEK cells. Cells were maintained at 37 ◦C with 5% CO2 in a humidified atmosphere. The growth medium consisted of high-glucose Dulbecco’s Modified Eagle Medium (DMEM, Sigma Aldrich, Naucalpan de Juarez, Estado de Mexico, Mexico), supplemented with 10% Fetal Bovine Serum (ByProductos, Guadalajara, Jalisco, Mexico) and 500 μg/mL of the antibiotic G418 (Sigma Aldrich, Naucalpan de Juarez, Estado de Mexico, Mexico). The extracellular solution was composed of (in mM): 130 NaCl, 5 KCl, 2 CaCl2, 2 MgCl2, 10 HEPES, and 5 glucose, with the pH adjusted to 7.3 using NaOH. The intracellular solution contained (in mM): 105 CsF, 27 CsCl, 5 NaCl, 2 MgCl2, 10 EGTA, and 10 HEPES, with the pH also adjusted to 7.3 with CsOH. Solutions were delivered to the patched cell via an active perfusion system connected to a variable-speed syringe pump (Model A-99, Razel Scientific Instruments, Fairfax, VT, USA), with a perfusion rate of approximately 1 μL/s. Patch pipettes were made from borosilicate glass capillaries (Warner Instruments, Hamden, CT, USA) using a vertical puller (Model P-30, Sutter Instrument, Novato, CA, USA). The pipettes were filled with the internal solution and had resistance ranging from 1.5 and 3 MΩ. Sodium currents were elicited by 100 ms depolarization ranging from −110 to 30 mV in 10 mV steps, followed by a fully activating step at −10 mV for 50 ms. To better appreciate the effects of scorpion β-sodium toxins, channels were primed by means of a 5 ms depolarization at 50 mV, applied 50 ms before the depolarization steps, as previously described in Cestele et al. 1998 [17]. To ensure complete recovery from inactivation, cells were maintained at −120 mV for 280 ms before each step, while holding potential was set at −100 mV. Currents were acquired using a MultiClamp 700A amplifier and a DigiData 1440A digitizer (Molecular Devices, CA, USA).
For the activation curve, conductance (G) was calculated from current (I) elicited during depolarization steps by means of the equation G = I/(Vm − ENa), where I is the current elicited at membrane potential Vm, and ENa is the reversal potential of Na^+ ions, calculated experimentally for each cell. Conductance was normalized to its maximal level and plotted against the corresponding membrane potential. For the steady-state inactivation curve, currents elicited at −10 mV (after preconditioning depolarization from −110 to 30 mV) were plotted against the preconditioning potentials. Data from activation and from steady-state inactivation were fitted using a Boltzmann equation: y = A2 + (A1 − A2)/(1 + exp((x − x0)/dx)) where A1 is the initial value, A2 is the final value, x0 is the potential of half-activation (or half-inactivation) and dx is the slope.
For hNav 1.6 currents, activation data after toxin exposure were fitted using the sum of two Boltzmann equations: y = y0 + A (frac/(1 + exp((x − x01)/k1)) + (1 − frac)/(1 + exp((x − x02)/k2))) where the sum is 1, x01 and dx1 are the same as under control conditions, and “frac” represents the fraction of channels bound to the toxin. Data are presented as means ± standard error (SE). The paired sample t-test (also known as the dependent samples t-test) was applied by comparing, for each individual cell recorded, the electrophysiological parameter of interest (e.g., peak current, V½ of activation or inactivation) before toxin application and after toxin application. Significant difference was accepted with a confidence level “p” set at 0.05. […]
Figure S1. Recordings of macroscopic currents from sodium channels. Sodium currents in B) were
elicited by the stimulation protocol depicted in A): currents were elicited by 100 ms depolarization
ranging from -110 to 30 mV in 10 mV steps, followed by a fully activating step at -10 mV for 50 ms. […]

antibody = assay: Antibody recognition of Chirp9 compared with Cl13; assay type: binding; settings: effect of the two amino acid differences between Chirp9 and Cl13
Text: Evaluation of the recognition capability of scFvs for the toxins of C. hirsutipalpus. Surface plasmon resonance (SPR) evaluations of the recognition capability of scFvs for the toxins of C. hirsutipalpus. The toxins from C. hirsutipalpus were used to evaluate the recognition capacity of antibody fragments previously generated against Mexican scorpion toxins in a biosensor that detects molecular interactions in real time (Biacore X100, Uppsala, Sweden). The toxins Chirp7 and Chirp9 were covalently immobilized onto the surface of CM5 Chips using the amino coupling kit, achieving binding levels of 200 RUs (1 RU corresponds to a change in surface concentration of approximately one pg of bound mass per mm^2). Each pure toxin was solubilized in 10 mM 2-(N-morpholino) ethanesulfonic acid (pH 6) and bound to cell 2. Cell 1 in the sensor (without bound toxin) was used as a control. The scFvs LR, 10FG2, 11F, HV, and RAS 27 [21] were evaluated for their ability to recognize each toxin.

Row | Molecule | effect on activation curve (hNav 1.6) | effect on peak current (hNav 1.6) | A: fraction of channels bound to the toxin (hNav 1.6) | I/Imax (residual peak current) (hNav 1.6) | slope of inactivation after toxin (hNav 1.6) | V0.5 of inactivation after toxin (hNav 1.6) [mV] | slope of activation after toxin (hNav 1.6) | V0.5 of activation after toxin (hNav 1.6) [mV] | effect on inactivation kinetic (hNav 1.6; residual current at potentials greater than −30 mV) | antibody recognition of Chirp9 versus Cl13 (antibody)
1 | Chirp7 (disulfide (positions not given here); also: four disulfide bridges, pairing not given here) KEGYLVNHSTGCKYECFKLGDNDYCLRECRQQYGKGAGGYCYAFGCWCTHLYEQAVVWPLPKKTCN-NH2 | leftward shift in the activation curves | reduced the peak current | 0.34 ± 0.04 | 0.88 ± 0.03 | 7.2 ± 0.4 | -58 ± 0.4 | 9.4 ± 1.9 | -52.5 ± 3.4 | – | –
2 | Chirp9 (disulfide (positions not given here); also: four disulfide bridges, pairing not given here) KEGYIVDYHTGCKYTCAKLGDNDYCVRECRLRYYQSAHGYCYAFACWCTHLYEAAVVWPLPNKRCK-NH2 | leftward shift in the activation curves | reduced the peak current | 1 ± 0.1 | 0.29 ± 0.03 | 6.9 ± 0.4 | -67.1 ± 0.5 | 15.5 ± 0.9 | -40.9 ± 0.2 | slows down the inactivation kinetic by promoting a residual current | significantly reduce antibody recognition
